No end group written: not given here.
Assays:
Assay in all cases: grating-coupled interferometry
[1] = biological target: SARNP UCM-1 peptide (GCI) (human)
[2] = biological target: SARNP UCM-1 and UCM-4 peptides
[3] = biological target: TREX-2^M, minimal recombinant TREX-2 complex (GANP Sac3 domain residues 582-1004, PCID2, SEM1) (human) (UniProt O60318)
[4] = biological target: UAP56 (DDX39B), recombinant wild type (human, UniProt Q13838 1-428)
Chain of UAP56 (DDX39B), recombinant wild type (human, UniProt Q13838 1-428) (Q13838 whole entry): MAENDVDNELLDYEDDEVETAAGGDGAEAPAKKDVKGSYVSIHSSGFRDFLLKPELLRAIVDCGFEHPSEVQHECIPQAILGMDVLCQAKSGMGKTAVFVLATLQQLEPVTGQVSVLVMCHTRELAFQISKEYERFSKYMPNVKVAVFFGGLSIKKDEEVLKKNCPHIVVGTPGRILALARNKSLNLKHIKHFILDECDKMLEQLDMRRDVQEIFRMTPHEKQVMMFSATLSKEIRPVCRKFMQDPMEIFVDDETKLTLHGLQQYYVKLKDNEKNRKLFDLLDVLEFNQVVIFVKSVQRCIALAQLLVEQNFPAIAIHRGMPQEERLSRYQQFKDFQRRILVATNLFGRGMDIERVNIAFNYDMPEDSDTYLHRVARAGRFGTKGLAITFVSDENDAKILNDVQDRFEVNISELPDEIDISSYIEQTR

Chain of UAP56 (DDX39B), recombinant wild type (from UniProt Q13838 1-428) (enzyme) (Q13838 whole entry): as above
Chain of TREX-2^M, minimal recombinant TREX-2 complex (GANP Sac3 domain residues 582-1004, PCID2, SEM1) (human) (O60318 582-1004, chain 1 of 3): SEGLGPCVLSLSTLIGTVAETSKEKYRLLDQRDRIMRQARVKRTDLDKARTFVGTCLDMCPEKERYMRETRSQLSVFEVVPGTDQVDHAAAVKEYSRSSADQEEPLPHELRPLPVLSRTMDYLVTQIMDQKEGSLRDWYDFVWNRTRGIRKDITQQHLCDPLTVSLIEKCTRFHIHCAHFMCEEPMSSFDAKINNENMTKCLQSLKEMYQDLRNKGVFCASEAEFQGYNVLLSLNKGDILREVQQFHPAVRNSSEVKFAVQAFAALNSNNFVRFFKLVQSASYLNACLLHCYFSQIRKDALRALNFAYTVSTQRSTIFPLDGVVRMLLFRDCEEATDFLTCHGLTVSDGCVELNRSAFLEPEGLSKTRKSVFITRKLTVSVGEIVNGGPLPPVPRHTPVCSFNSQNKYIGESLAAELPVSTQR
Chain of TREX-2^M, minimal recombinant TREX-2 complex (GANP Sac3 domain residues 582-1004, PCID2, SEM1) (human) (Q5JVF3 whole entry, chain 2 of 3, further chain, the tested form may be a part): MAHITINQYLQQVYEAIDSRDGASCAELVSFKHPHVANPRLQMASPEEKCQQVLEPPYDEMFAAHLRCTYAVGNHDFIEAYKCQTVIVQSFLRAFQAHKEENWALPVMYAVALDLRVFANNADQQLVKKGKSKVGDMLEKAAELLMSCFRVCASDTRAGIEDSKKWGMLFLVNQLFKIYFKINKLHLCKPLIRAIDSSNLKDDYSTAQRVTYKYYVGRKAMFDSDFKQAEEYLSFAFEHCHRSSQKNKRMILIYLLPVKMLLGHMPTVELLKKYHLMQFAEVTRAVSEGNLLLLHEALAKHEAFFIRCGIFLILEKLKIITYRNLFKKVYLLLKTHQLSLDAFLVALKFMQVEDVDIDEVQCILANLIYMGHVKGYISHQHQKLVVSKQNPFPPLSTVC
Chain of TREX-2^M, minimal recombinant TREX-2 complex (GANP Sac3 domain residues 582-1004, PCID2, SEM1) (human) (P60896 whole entry, chain 3 of 3, further chain, the tested form may be a part): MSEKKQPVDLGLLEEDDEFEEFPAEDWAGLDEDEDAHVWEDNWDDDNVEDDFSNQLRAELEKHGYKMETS

UAP56 (DDX39B), recombinant wild type (from UniProt Q13838 1-428) (enzyme)
Kd [1]: 12 µM | Kd [2]: 10 to 20 µM

UAP56 lacking residues 1-28 (from UniProt Q13838 28-428) (domain or fragment)
Kd [3]: 0.17 µM

MDMSLDDII (also: biotin, position not given here) [ALYREF N-UBM peptide (GCI)]
Kd [4]: 24 µM

Source: paper doi:10.1101/2024.03.24.586400 (bioRxiv, 2024)
